T1: Mcm4 (S. cerevisiae, UniProt P30665 1-933)
T1 construct: Mcm4 of S. cerevisiae; Stood in the assay as a subunit of the mutant Mcm2-7
T1 sequence: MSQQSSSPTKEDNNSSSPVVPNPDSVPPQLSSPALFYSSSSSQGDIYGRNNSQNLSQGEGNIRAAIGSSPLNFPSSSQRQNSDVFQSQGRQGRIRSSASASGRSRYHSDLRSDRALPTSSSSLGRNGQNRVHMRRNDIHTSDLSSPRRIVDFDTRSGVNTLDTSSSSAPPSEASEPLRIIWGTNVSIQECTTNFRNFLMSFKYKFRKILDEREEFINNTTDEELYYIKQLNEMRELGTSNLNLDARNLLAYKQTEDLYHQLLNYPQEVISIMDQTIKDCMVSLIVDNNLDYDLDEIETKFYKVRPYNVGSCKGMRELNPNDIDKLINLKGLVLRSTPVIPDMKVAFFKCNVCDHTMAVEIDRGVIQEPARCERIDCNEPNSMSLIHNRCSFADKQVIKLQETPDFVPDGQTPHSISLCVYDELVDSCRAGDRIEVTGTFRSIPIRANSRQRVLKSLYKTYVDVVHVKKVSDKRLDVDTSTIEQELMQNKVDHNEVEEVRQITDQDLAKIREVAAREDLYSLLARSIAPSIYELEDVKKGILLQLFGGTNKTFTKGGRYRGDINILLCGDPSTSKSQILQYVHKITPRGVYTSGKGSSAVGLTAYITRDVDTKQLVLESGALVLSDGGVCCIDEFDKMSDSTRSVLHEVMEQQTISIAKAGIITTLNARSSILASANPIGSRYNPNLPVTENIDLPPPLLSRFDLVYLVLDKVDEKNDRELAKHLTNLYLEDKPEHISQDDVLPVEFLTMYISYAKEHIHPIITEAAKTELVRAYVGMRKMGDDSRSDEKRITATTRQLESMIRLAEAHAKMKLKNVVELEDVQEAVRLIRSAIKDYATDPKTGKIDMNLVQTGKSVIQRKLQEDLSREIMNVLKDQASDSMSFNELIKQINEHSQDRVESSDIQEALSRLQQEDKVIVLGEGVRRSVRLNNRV

B1: Mcm7 (natural protein, S. cerevisiae, UniProt P38132 1-845, looked up)
chain: MSAALPSIQLPVDYNNLFNEITDFLVTFKQDTLSSDATRNENEDENLDAENIEQHLLEKGPKYMAMLQKVANRELNSVIIDLDDILQYQNEKFLQGTQADDLVSAIQQNANHFTELFCRAIDNNMPLPTKEIDYKDDVLDVILNQRRLRNERMLSDRTNEIRSENLMDTTMDPPSSMNDALREVVEDETELFPPNLTRRYFLYFKPLSQNCARRYRKKAISSKPLSVRQIKGDFLGQLITVRGIITRVSDVKPAVEVIAYTCDQCGYEVFQEVNSRTFTPLSECTSEECSQNQTKGQLFMSTRASKFSAFQECKIQELSQQVPVGHIPRSLNIHVNGTLVRSLSPGDIVDVTGIFLPAPYTGFKALKAGLLTETYLEAQFVRQHKKKFASFSLTSDVEERVMELITSGDVYNRLAKSIAPEIYGNLDVKKALLLLLVGGVDKRVGDGMKIRGDINVCLMGDPGVAKSQLLKAICKISPRGVYTTGKGSSGVGLTAAVMKDPVTDEMILEGGALVLADNGICCIDEFDKMDESDRTAIHEVMEQQTISISKAGINTTLNARTSILAAANPLYGRYNPRLSPLDNINLPAALLSRFDILFLMLDIPSRDDDEKLAEHVTYVHMHNKQPDLDFTPVEPSKMREYIAYAKTKRPVMSEAVNDYVVQAYIRLRQDSKREMDSKFSFGQATPRTLLGIIRLSQALAKLRLADMVDIDDVEEALRLVRVSKESLYQETNKSKEDESPTTKIFTIIKKMLQETGKNTLSYENIVKTVRLRGFTMLQLSNCIQEYSYLNVWHLINEGNTLKFVDDGTMDTDQEDSLVSTPKLAPQTTASANVSAQDSDIDLQDA
notes: Mcm7 of S. cerevisiae; Stood in the assay as a subunit of the mutant Mcm2-7; in the semi-attached OCCM only its WHD is resolved
B2: Orc2 (natural protein, S. cerevisiae)
chain: MLNGEDFVEHNDILSSPAKSRNVTPKRVDPHGERQLRRIHSSKKNLLERISLVGNERKNTSPDPALKPKTPSKAPRKRGRPRKIQEELTDRIKKDEKDTISSKKKRKLDKDTSGNVNEESKTSNNKQVMEKTGIKEKREREKIQVATTTYEDNVTPQTDDNFVSNSPEPPEPATPSKKSLTTNHDFTSPLKQIIMNNLKEYKDSTSPGKLTLSRNFTPTPVPKNKKLYQTSETKSASSFLDTFEGYFDQRKIVRTNAKSRHTMSMAPDVTREEFSLVSNFFNENFQKRPRQKLFEIQKKMFPQYWFELTQGFSLLFYGVGSKRNFLEEFAIDYLSPKIAYSQLAYENELQQNKPVNSIPCLILNGYNPSCNYRDVFKEITDLLVPAELTRSETKYWGNHVILQIQKMIDFYKNQPLDIKLILVVHNLDGPSIRKNTFQTMLSFLSVIRQIAIVASTDHIYAPLLWDNMKAQNYNFVFHDISNFEPSTVESTFQDVMKMGKSDTSSGAEGAKYVLQSLTVNSKKMYKLLIETQMQNMGNLSANTGPKRGTQRTGVELKLFNHLCAADFIASNEIALRSMLREFIEHKMANITKNNSGMEIIWVPYTYAELEKLLKTVLNTL
notes: Orc2, subunit of the S. cerevisiae origin recognition complex; Stood in the assay as a subunit of ORC
B3: Orc1 (natural protein, S. cerevisiae)
chain: MAKTLKDLQGWEIITTDEQGNIIDGGQKRLRRRGAKTEHYLKRSSDGIKLGRGDSVVMHNEAAGTYSVYMIQELRLNTLNNVVELWALTYLRWFEVNPLAHYRQFNPDANILNRPLNYYNKLFSETANKNELYLTAELAELQLFNFIRVANVMDGSKWEVLKGNVDPERDFTVRYICEPTGEKFVDINIEDVKAYIKKVEPREAQEYLKDLTLPSKKKEIKRGPQKKDKATQTAQISDAETRATDITDNEDGNEDESSDYESPSDIDVSEDMDSGEISADELEEEEDEEEDEDEEEKEARHTNSPRKRGRKIKLGKDDIDASVQPPPKKRGRKPKDPSKPRQMLLISSCRANNTPVIRKFTKKNVARAKKKYTPFSKRFKSIAAIPDLTSLPEFYGNSSELMASRFENKLKTTQKHQIVETIFSKVKKQLNSSYVKEEILKSANFQDYLPARENEFASIYLSAYSAIESDSATTIYVAGTPGVGKTLTVREVVKELLSSSAQREIPDFLYVEINGLKMVKPTDCYETLWNKVSGERLTWAASMESLEFYFKRVPKNKKKTIVVLLDELDAMVTKSQDIMYNFFNWTTYENAKLIVIAVANTMDLPERQLGNKITSRIGFTRIMFTGYTHEELKNIIDLRLKGLNDSFFYVDTKTGNAILIDAAGNDTTVKQTLPEDVRKVRLRMSADAIEIASRKVASVSGDARRALKVCKRAAEIAEKHYMAKHGYGYDGKTVIEDENEEQIYDDEDKDLIESNKAKDDNDDDDDNDGVQTVHITHVMKALNETLNSHVITFMTRLSFTAKLFIYALLNLMKKNGSQEQELGDIVDEIKLLIEVNGSNKFVMEIAKTLFQQGSDNISEQLRIISWDFVLNQLLDAGILFKQTMKNDRICCVKLNISVEEAKRAMNEDETLRNL
notes: Orc1, subunit of the S. cerevisiae origin recognition complex; Stood in the assay as a subunit of ORC

Key:
Experiment in all cases: cryo-EM structure; pre-insertion OCCM, 8.1 Å; same loading reaction (purified ORC, Cdc6, Cdt1, mutant Mcm2-7, ARS1 DNA, ATPγS); models docked as rigid bodies
Details in all cases: both partners purified
[1] = biological target: B3
[2] = biological target: T2, Mcm3 (S. cerevisiae, UniProt P24279 1-971)
T2 construct: Mcm3 of S. cerevisiae; Stood in the assay as a subunit of the mutant Mcm2-7; in the semi-attached OCCM only its WHD is resolved
T2 sequence (P24279 whole entry): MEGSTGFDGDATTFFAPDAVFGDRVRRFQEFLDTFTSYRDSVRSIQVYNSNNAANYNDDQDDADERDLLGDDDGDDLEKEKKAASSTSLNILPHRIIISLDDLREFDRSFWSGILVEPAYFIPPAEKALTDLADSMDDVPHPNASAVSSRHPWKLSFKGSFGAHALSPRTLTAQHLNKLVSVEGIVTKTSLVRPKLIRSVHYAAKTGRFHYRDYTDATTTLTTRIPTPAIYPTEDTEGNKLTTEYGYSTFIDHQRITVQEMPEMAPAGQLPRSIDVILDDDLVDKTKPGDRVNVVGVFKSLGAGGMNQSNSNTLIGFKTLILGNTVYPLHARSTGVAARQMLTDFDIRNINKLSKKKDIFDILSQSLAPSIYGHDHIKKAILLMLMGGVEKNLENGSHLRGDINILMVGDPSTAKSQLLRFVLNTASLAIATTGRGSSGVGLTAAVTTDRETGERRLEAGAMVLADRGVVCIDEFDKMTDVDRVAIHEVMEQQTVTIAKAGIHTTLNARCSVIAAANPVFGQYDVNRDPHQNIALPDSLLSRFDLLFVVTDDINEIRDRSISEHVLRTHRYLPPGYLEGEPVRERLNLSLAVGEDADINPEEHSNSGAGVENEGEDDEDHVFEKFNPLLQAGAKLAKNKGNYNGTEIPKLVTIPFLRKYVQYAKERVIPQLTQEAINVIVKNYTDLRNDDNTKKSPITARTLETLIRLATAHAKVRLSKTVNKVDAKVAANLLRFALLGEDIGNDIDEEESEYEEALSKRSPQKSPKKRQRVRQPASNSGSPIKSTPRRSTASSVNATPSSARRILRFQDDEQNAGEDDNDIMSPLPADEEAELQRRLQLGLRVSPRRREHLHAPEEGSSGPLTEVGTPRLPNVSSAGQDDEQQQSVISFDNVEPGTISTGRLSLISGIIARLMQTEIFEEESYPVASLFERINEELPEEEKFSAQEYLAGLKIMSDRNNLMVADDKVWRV

[3] = biological target: T1, Mcm4

B1: binds [1].

B2: binds [2].

B3: binds [3].

— paper PMC7395460, “Structural mechanism of helicase loading onto replication origin DNA by ORC-Cdc6” (Proceedings of the National Academy of Sciences of the …, 2020)
